# In US20240124560A1:
# Key:
# Assay in all cases: cell-based or functional assay
# [1] = biological target: HIV-1 Env of NIH-071_R1166.c01 (HIV-1)
# [2] = biological target: envelope protein of control pseudovirus NAC_AMLV
# [3] = biological target: HIV-1 Env of pseudovirus NIH-087_P1981 C5 3 (clade G) (HIV-1)
# [4] = biological target: HIV-1 Env of isolate NIH-087_P1981 C5 3 (HIV-1)
# [5] = biological target: HIV-1 Env of pseudovirus NIH-098_89.F1 2 25 (clade CD) (HIV-1)
# [6] = biological target: HIV-1 Env of pseudovirus NIH-041_BF1266.431a (HIV-1)
# [7] = biological target: HIV-1 Env of pseudovirus NAC_92BR020 (HIV-1)
# [8] = biological target: HIV-1 Env of pseudovirus NIH-106_T250.4 (HIV-1)
# [9] = biological target: HIV-1 Env of NIH-073_C3347.c11 (HIV-1)
# [10] = biological target: HIV-1 Env of NIH-108_T235.47 (HIV-1)
# [11] = biological target: HIV-1 Env of NIH-103_0815.v3.c3 (HIV-1)
# [12] = biological target: HIV-1 Env of pseudovirus NIH-084_X1254 c3 (clade G) (HIV-1)
# [13] = biological target: HIV-1 Env of NIH-068_620345.c01 (HIV-1)
# [14] = biological target: HIV-1 Env of NIH-016_SC05.8C11.2344 (HIV-1)
# [15] = biological target: HIV-1 Env of NIH-038_Ce1172 H1 (HIV-1)
# [16] = biological target: HIV-1 Env of pseudovirus NIH-056_Q168ENVa2 (HIV-1)
# [17] = biological target: HIV-1 Env of pseudovirus NIH-009_1006.11.C3.1601 (HIV-1)
# [18] = biological target: HIV-1 Env of pseudovirus NAC_93IN905 (HIV-1)
# [19] = biological target: HIV-1 Env of NIH-055_CNE58 (HIV-1)
# [20] = biological target: HIV-1 Env of pseudovirus NIH-102_6545.v4.c1 (HIV-1)
# [21] = biological target: HIV-1 Env of NIH-008_WEAU.d15.410.787 (HIV-1)
# [22] = biological target: HIV-1 Env of NIH-061_Q259ENVd2.17 (HIV-1)
# [23] = biological target: HIV-1 Env of pseudovirus NAC_ADA (HIV-1)
# [24] = biological target: HIV-1 Env of NIH-056_Q168ENVa2 (HIV-1)
# [25] = biological target: HIV-1 Env of NIH-077_BJOX009000.02.4 (HIV-1)
# [26] = biological target: HIV-1 Env of NIH-051_CNE17 (HIV-1)
# [27] = biological target: HIV-1 Env of NIH-034_Ce0393 C3 (HIV-1)
# [28] = biological target: HIV-1 Env of pseudovirus NAC_JRFL (HIV-1)
# [29] = biological target: HIV-1 Env of NAC_TRJO.58 (HIV-1)
# [30] = biological target: HIV-1 Env of NIH-001_6535.3 (HIV-1)
# [31] = biological target: HIV-1 Env of pseudovirus NIH-032_HIV-16845.2.22 (HIV-1)
# [32] = biological target: HIV-1 Env of NIH-045_7030102001E5(Rev.) (HIV-1)
# [33] = biological target: HIV-1 Env of NIH-116_T263.8 (HIV-1)
# [34] = biological target: HIV-1 Env of pseudovirus NIH-004_PVO.4 (HIV-1)
# [35] = biological target: HIV-1 Env of NIH-049_CNE20 (HIV-1)
# [36] = biological target: HIV-1 Env of isolate NIH-082_X1193 c1 (HIV-1)
# [37] = biological target: HIV-1 Env of pseudovirus NIH-029_HIV-001428.2.42 (HIV-1)
# [38] = biological target: HIV-1 Env of NAC_92RW020 (HIV-1)
# [39] = biological target: HIV-1 Env of pseudovirus NIH-095_6480.v4.c25 (HIV-1)
# [40] = biological target: HIV-1 Env of pseudovirus NAC_92TH021 (HIV-1)
# [41] = biological target: HIV-1 Env of pseudovirus NIH-103_0815.v3.c3 (HIV-1)
# [42] = biological target: HIV-1 Env of pseudovirus NIH-075_CNE8 (HIV-1)
# [43] = biological target: HIV-1 Env of pseudovirus NAC_IAVIC22 (HIV-1)
# [44] = biological target: HIV-1 Env of NIH-115_928.28 (HIV-1)
# [45] = biological target: HIV-1 Env of pseudovirus NIH-107_T251.18 (HIV-1)
# [46] = biological target: HIV-1 Env of NAC_SF162 (HIV-1)
substance,measurement,setting,value
4E10 (antibody),IC80 neutralization,[1],1.77 µg/mL
same,"IC50 (µg/ml), TZM-bl cell neutralization assay, control pseudovirus",[2],> 50 µg/mL
same,"IC80 (µg/ml), TZM-bl pseudovirus neutralization",[2],> 50 µg/mL
same,"IC50 (µg/ml), TZM-bl cell neutralization assay, pseudovirus",[3],0.099 µg/mL
same,"IC80 (µg/ml), TZM-bl pseudovirus neutralization",[4],0.406 µg/mL
same,"IC50 (µg/ml), TZM-bl cell neutralization assay, pseudovirus",[5],5.11 µg/mL
same,neutralization IC50,[6],2.47 µg/mL
same,neutralization IC50,[7],2.57 µg/mL
same,neutralization IC50,[8],0.756 µg/mL
same,IC80 neutralization,[9],0.137 µg/mL
same,IC80 neutralization,[10],1.07 µg/mL
same,IC80 neutralization,[11],6.31 µg/mL
same,"IC50 (µg/ml), TZM-bl cell neutralization assay, pseudovirus",[12],2.88 µg/mL
same,IC80 neutralization,[13],3.06 µg/mL
same,IC80 neutralization,[14],3.44 µg/mL
same,IC80 neutralization,[15],4.56 µg/mL
same,neutralization IC50,[16],3.78 µg/mL
same,neutralization IC50,[17],5.66 µg/mL
same,neutralization IC50,[18],0.11 µg/mL
same,IC80 neutralization,[19],2.24 µg/mL
same,neutralization IC50,[20],2.35 µg/mL
same,IC80 neutralization,[21],2.59 µg/mL
same,IC80 neutralization,[22],28.9 µg/mL
same,neutralization IC50,[23],0.836 µg/mL
same,IC80 neutralization,[24],15.1 µg/mL
same,IC80 neutralization,[25],1.62 µg/mL
same,IC80 neutralization,[26],2.23 µg/mL
same,IC80 neutralization,[27],2.56 µg/mL
same,neutralization IC50,[28],17.8 µg/mL
same,IC80 neutralization,[29],11.6 µg/mL
same,IC80 neutralization,[30],3.29 µg/mL
same,neutralization IC50,[31],0.097 µg/mL
same,IC80 neutralization,[32],15.7 µg/mL
same,IC80 neutralization,[33],0.927 µg/mL
same,neutralization IC50,[34],9.59 µg/mL
same,IC80 neutralization,[35],1.58 µg/mL
same,"IC80 (µg/ml), TZM-bl pseudovirus neutralization",[36],1.43 µg/mL
same,neutralization IC50,[37],5.54 µg/mL
same,IC80 neutralization,[38],9.61 µg/mL
same,neutralization IC50,[39],0.561 µg/mL
same,neutralization IC50,[40],0.348 µg/mL
same,neutralization IC50,[41],1.2 µg/mL
same,neutralization IC50,[42],0.087 µg/mL
same,neutralization IC50,[43],1.21 µg/mL
same,IC80 neutralization,[44],0.438 µg/mL
same,neutralization IC50,[45],0.905 µg/mL
same,IC80 neutralization,[46],8.26 µg/mL
PGZL1 (antibody),IC80 neutralization,[1],19.5 µg/mL
same,"IC50 (µg/ml), TZM-bl cell neutralization assay, control pseudovirus",[2],> 50 µg/mL
same,"IC80 (µg/ml), TZM-bl pseudovirus neutralization",[2],> 50 µg/mL
same,"IC50 (µg/ml), TZM-bl cell neutralization assay, pseudovirus",[3],1.39 µg/mL
same,"IC80 (µg/ml), TZM-bl pseudovirus neutralization",[4],5.55 µg/mL
same,"IC50 (µg/ml), TZM-bl cell neutralization assay, pseudovirus",[5],> 50 µg/mL
same,neutralization IC50,[6],48.8 µg/mL
same,neutralization IC50,[7],> 50 µg/mL
same,neutralization IC50,[8],13.9 µg/mL
same,IC80 neutralization,[9],0.263 µg/mL
same,IC80 neutralization,[10],6.62 µg/mL
same,IC80 neutralization,[11],> 50 µg/mL
same,"IC50 (µg/ml), TZM-bl cell neutralization assay, pseudovirus",[12],45.5 µg/mL
same,IC80 neutralization,[13],> 50 µg/mL
same,IC80 neutralization,[14],24.6 µg/mL
same,IC80 neutralization,[15],6.6 µg/mL
same,neutralization IC50,[16],21.7 µg/mL
same,neutralization IC50,[17],24.6 µg/mL
same,neutralization IC50,[18],0.404 µg/mL
same,IC80 neutralization,[19],14.5 µg/mL
same,neutralization IC50,[20],> 50 µg/mL
same,IC80 neutralization,[21],39.6 µg/mL
same,IC80 neutralization,[22],> 50 µg/mL
same,neutralization IC50,[23],5.36 µg/mL
same,IC80 neutralization,[24],> 50 µg/mL
same,IC80 neutralization,[25],15.8 µg/mL
same,IC80 neutralization,[26],48.6 µg/mL
same,IC80 neutralization,[27],> 50 µg/mL
same,neutralization IC50,[28],> 50 µg/mL
same,IC80 neutralization,[29],> 50 µg/mL
same,IC80 neutralization,[30],4.69 µg/mL
same,neutralization IC50,[31],0.424 µg/mL
same,IC80 neutralization,[32],> 50 µg/mL
same,IC80 neutralization,[33],8.18 µg/mL
same,neutralization IC50,[34],49 µg/mL
same,IC80 neutralization,[35],9.5 µg/mL
same,"IC80 (µg/ml), TZM-bl pseudovirus neutralization",[36],21.3 µg/mL
same,neutralization IC50,[37],> 50 µg/mL
same,IC80 neutralization,[38],> 50 µg/mL
same,neutralization IC50,[39],15 µg/mL
same,neutralization IC50,[40],2.12 µg/mL
same,neutralization IC50,[41],18.7 µg/mL
same,neutralization IC50,[42],0.247 µg/mL
same,neutralization IC50,[43],15.2 µg/mL
same,IC80 neutralization,[44],5.45 µg/mL
same,neutralization IC50,[45],43 µg/mL
same,IC80 neutralization,[46],48.6 µg/mL
VRC01 (antibody),IC80 neutralization,[1],1.95 µg/mL
same,"IC50 (µg/ml), TZM-bl cell neutralization assay, control pseudovirus",[2],> 50 µg/mL
same,"IC80 (µg/ml), TZM-bl pseudovirus neutralization",[2],> 50 µg/mL
same,"IC50 (µg/ml), TZM-bl cell neutralization assay, pseudovirus",[3],0.203 µg/mL
same,"IC80 (µg/ml), TZM-bl pseudovirus neutralization",[4],0.8 µg/mL
same,"IC50 (µg/ml), TZM-bl cell neutralization assay, pseudovirus",[5],> 50 µg/mL
same,neutralization IC50,[6],0.028 µg/mL
same,neutralization IC50,[7],0.059 µg/mL
same,neutralization IC50,[8],> 50 µg/mL
same,IC80 neutralization,[9],0.254 µg/mL
same,IC80 neutralization,[10],0.084 µg/mL
same,IC80 neutralization,[11],0.07 µg/mL
same,"IC50 (µg/ml), TZM-bl cell neutralization assay, pseudovirus",[12],0.039 µg/mL
same,IC80 neutralization,[13],> 50 µg/mL
same,IC80 neutralization,[14],1.98 µg/mL
same,IC80 neutralization,[15],> 50 µg/mL
same,neutralization IC50,[16],0.056 µg/mL
same,neutralization IC50,[17],0.145 µg/mL
same,neutralization IC50,[18],0.07 µg/mL
same,IC80 neutralization,[19],0.331 µg/mL
same,neutralization IC50,[20],> 50 µg/mL
same,IC80 neutralization,[21],0.306 µg/mL
same,IC80 neutralization,[22],0.449 µg/mL
same,neutralization IC50,[23],0.314 µg/mL
same,IC80 neutralization,[24],0.218 µg/mL
same,IC80 neutralization,[25],2.34 µg/mL
same,IC80 neutralization,[26],0.904 µg/mL
same,IC80 neutralization,[27],1.46 µg/mL
same,neutralization IC50,[28],0.141 µg/mL
same,IC80 neutralization,[29],0.223 µg/mL
same,IC80 neutralization,[30],3.7 µg/mL
same,neutralization IC50,[31],0.968 µg/mL
same,IC80 neutralization,[32],1.49 µg/mL
same,IC80 neutralization,[33],0.505 µg/mL
same,neutralization IC50,[34],0.192 µg/mL
same,IC80 neutralization,[35],20.2 µg/mL
same,"IC80 (µg/ml), TZM-bl pseudovirus neutralization",[36],0.408 µg/mL
same,neutralization IC50,[37],0.019 µg/mL
same,IC80 neutralization,[38],0.811 µg/mL
same,neutralization IC50,[39],0.014 µg/mL
same,neutralization IC50,[40],0.324 µg/mL
same,neutralization IC50,[41],0.019 µg/mL
same,neutralization IC50,[42],0.126 µg/mL
same,neutralization IC50,[43],0.348 µg/mL
same,IC80 neutralization,[44],0.99 µg/mL
same,neutralization IC50,[45],2.02 µg/mL
same,IC80 neutralization,[46],1.03 µg/mL
